# From patent US20230265187A1 (published 2023)
# Substitutions are numbered along the chain they refer to.
# T1: human TIGIT on Jurkat cells (TIGIT/NFAT reporter Jurkat cells, BPS Bioscience #60538); Promega TIGIT Effector … (human, UniProt Q495A1 22-244)
# T1 construct: whole, on cells; Same protein on two bought Jurkat lines (flow cytometry: BPS; bioassay: Promega); also called hu TIGIT cells; cells expressing human TIGIT
# T1 sequence (looked up): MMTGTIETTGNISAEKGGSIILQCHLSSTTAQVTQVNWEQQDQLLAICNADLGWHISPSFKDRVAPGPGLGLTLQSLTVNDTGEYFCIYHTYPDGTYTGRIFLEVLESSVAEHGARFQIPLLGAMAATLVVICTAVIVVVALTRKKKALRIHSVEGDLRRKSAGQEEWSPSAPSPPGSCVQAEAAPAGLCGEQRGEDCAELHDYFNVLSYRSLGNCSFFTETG
# T2: his-tagged murine TIGIT (Acro Biosystems #TIT-M52E6) (murine, UniProt P86176 29-148, limits assumed)
# T2 construct: Bought protein; also called mouse his-tagged TIGIT; not shown: his tag
# T2 sequence (looked up): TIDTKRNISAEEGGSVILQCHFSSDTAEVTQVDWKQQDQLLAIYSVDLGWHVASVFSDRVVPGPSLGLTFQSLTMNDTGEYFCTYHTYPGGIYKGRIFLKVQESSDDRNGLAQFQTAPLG
# T3: his-tagged human TIGIT (Acro Biosystems #TIT-H52H3) (human, UniProt Q495A1 22-141)
# T3 construct: Bought protein; also called His-tagged-TIGIT (human); not shown: his tag
# T3 sequence (looked up): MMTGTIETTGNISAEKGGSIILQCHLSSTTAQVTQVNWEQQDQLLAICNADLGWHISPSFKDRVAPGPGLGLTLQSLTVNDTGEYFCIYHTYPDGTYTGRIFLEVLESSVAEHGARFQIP
# B1: 43586p1.2.C11 (scFv, V domains shown)
# VH: EVQLLESGGGLVQPGGSLRLSCAASGFTFDDYVMSWVRQAPGKGLEWVSLINWNGDKTYCADSVKGRFTISRDNSKNTLYLQMNSLRAEDTAIYYCAKHWIVFQYGMDVWGQGTTVTVSS
# VL: QSVLTQPPSASGTPGQRVTISCSGSISNIETKYVSWYQQLPGTAPKLLIYNSDQRPSGVPDRFSGSKSGTSASLAISGLQSEDEADYYCVSWDASLKSWVFGGGTKLTVL
# B2: 43586p1.2.E4 (scFv, V domains shown)
# VH: B1 VH with D30S, V33L, S35T, L50T, N52T, N54D, K57R, C60Y, I93V, I101T
# VL: B1 VL with S25T, T31I, N51G, S52N, D53H, V90S, D93E, A94N, S95D
# B3: 43586p1.2.F9 (scFv, V domains shown)
# VH: B1 VH with C60Y, Q112R
# VL: B1 VL
# B4: 43586p1.2.E2 (scFv, V domains shown)
# VH: EVQLLESGGGLVQPGGSLRLSCAASGFTFTSYLMSWVRQAPGKGLEWVSTITWDGDRTYYADSVKGRFTISRDNSKNTLYLQMNSLRVGDTAVYYCAKHWTVFQYGMDVWGQGTTVTVSS
# VL: B1 VL with P8A, S25T, N51G, S52N, D53H, V90A, D93E, A94N, S95D
# B5: 43586p1.2.G10 (scFv, V domains shown)
# VH: B1 VH with G44E, Y59C, C60Y
# VL: B1 VL
# B6: 43586p2.D11 (scFv, V domains shown)
# VH: B1 VH with N54S, D56G, K57T, C60Y, I93V, F103Y
# VL: QSVLTQPSSASGTPGQRVAISCSGTISNIETKYVSWYKYVSWYQQLPGTAPKLLIYNNVQRPSGVPDRFSGSQSGTSASLAISGLQSEDEAHYYCASWEGGLNSWVFGGGTKLTVL
# B7: 43586p1.2.G4 (scFv, V domains shown)
# VH: B1 VH with C60Y, I93V, K98R, M107L
# VL: B1 VL with P8L, S25V, I26S, T31I, D53H, V90T, A94D, S95R
# B8: 43586p1.2.E1 (scFv, V domains shown)
# VH: B4 VH with T30S, S31D, S35T, G44E, V88A, G89E
# VL: B1 VL with S25T, T31I, N51G, S52N, D53H, V90S, D93E, A94N, S95D
# B9: 43645p1.F11 (scFv, V domains shown)
# VH: EVQLLESGGGLVQPGGSLRLSCAASGFTFSSYWMSWVRQAPGKGLEWVSGIHISDSTYYADSVKGRFTISRDNSKNTLYLQMNSLRAEDTAVYYCAKGHTVLQYGMDVWGQGTTVTVSS
# VL: QSGLTQPPSASGTPGQRVTISCSGDISNTRNNYVSWYQQLPGTAPKLLIYRNSQRPSGVPDRFSGSKSATSASLAISGLQSEDEADYYCGTWDNTLNAWVFGGGTKLTVL
# B10: 43352p1.H8 (scFv, V domains shown)
# VH: DVQLVESGGGVVRPGESLRLSCAASGFNFSTYAMNWVRQAPGEGLEWVSGISGRSSGDTTYYADSVRGWFTVSRDNSKNTLYLQMSSLRAEDTAVYYCARETWIRGYFDYWGLGTLVTVSS
# VL: QSVLTQPPSASGTPGQRVTISCSGSRSNLGNNLVYWYQQLPGTAPKLLIYFNNERPSGVPDRFSGSKSGTSASLAISGVQSEDEADYYCATWDDSLNGWVFGGGTKLTVL
# Molecular target: T1, human TIGIT on Jurkat cells (TIGIT/NFAT …)
# Assay: flow cytometry, TIGIT/NFAT Jurkat cells, 10 ug/ml
row,Binder,MFI
1,B1,9550 MFI
2,B2,9550 MFI
3,B3,9110 MFI
4,B4,9320 MFI
5,B5,10100 MFI
6,B6,9530 MFI
7,B7,9340 MFI
8,B8,9480 MFI
9,B9,10900 MFI
10,B10,10300 MFI

# Molecular target: T4, His-tagged cynomolgus monkey TIGIT (Acro Biosystems #TIT-05223) (cynomolgus monkey, UniProt A0A7N9I9V4 89-209)
# T4 construct: Bought protein; also called cyno TIGIT; cynomolgus TIGIT; not shown: His tag
# Assay: ELISA, coated His-TIGIT, 1 ug/ml
# T4 sequence (A0A7N9I9V4 entry or part of it): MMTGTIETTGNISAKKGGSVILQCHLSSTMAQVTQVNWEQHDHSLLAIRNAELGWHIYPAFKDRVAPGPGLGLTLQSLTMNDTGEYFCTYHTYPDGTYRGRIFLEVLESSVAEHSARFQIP
row,Binder,Elisa OD450
1,B1,1.81 OD450
2,B2,1.86 OD450
3,B3,1.71 OD450
4,B4,1.73 OD450
5,B5,1.52 OD450
6,B6,1.6 OD450
7,B7,1.88 OD450
8,B8,1.85 OD450
9,B9,1.8 OD450
10,B10,0.363 OD450

# Molecular target: T2, his-tagged murine TIGIT (Acro …)
# Assay: ELISA, coated His-TIGIT, 1 ug/ml
row,Binder,Elisa OD450
1,B1,2.01 OD450
2,B2,2.03 OD450
3,B3,2.14 OD450
4,B4,1.78 OD450
5,B5,2.1 OD450
6,B6,1.61 OD450
7,B7,2.04 OD450
8,B8,2.11 OD450
9,B9,1.85 OD450
10,B10,1.85 OD450

# Molecular target: T3, his-tagged human TIGIT (Acro Biosystems …)
# Assay: ELISA, coated His-TIGIT, 1 ug/ml
row,Binder,Elisa OD450
1,B1,2.03 OD450
2,B2,2.09 OD450
3,B3,2 OD450
4,B4,2.02 OD450
5,B5,1.99 OD450
6,B6,2.01 OD450
7,B7,2.02 OD450
8,B8,2.25 OD450
9,B9,2.03 OD450
10,B10,1.8 OD450

# Molecular target: T4, His-tagged cynomolgus monkey TIGIT …
# Assay: SPR (Carterra LSA), scFv-Fc captured, His-TIGIT analyte
# Method in brief: (§1)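 SPR: scFv-Fc from supernatants (diluted 30-fold in HBSTE) captured on anti-human Fc-coupled HC30M chip; His-tagged TIGIT injected as 1:2 dilution series. Kinetic affinities fitted from sensorgrams.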
row,Binder,Kd
1,B1,2.56 nM
2,B2,25.4 nM
3,B3,12.2 nM
4,B4,9.5 nM
5,B5,14 nM
6,B6,87.4 nM
7,B7,3.19 nM
8,B8,6.27 nM
9,B9,33 nM
10,B10,120 nM

# Molecular target: T2, his-tagged murine TIGIT (Acro …)
# Assay: as above
# Method in brief: as §1
row,Binder,Kd
1,B1,1.45 nM
2,B2,66.5 nM
3,B3,4.95 nM
4,B4,122 nM
5,B5,15.6 nM
6,B6,41.4 nM
7,B7,6.89 nM
8,B8,7.34 nM
9,B9,235 nM
10,B10,1.14 nM

# Molecular target: T3, his-tagged human TIGIT (Acro Biosystems …)
# Assay: as above
# Method in brief: as §1
row,Binder,Kd
1,B1,0.0517 nM
2,B2,0.117 nM
3,B3,0.338 nM
4,B4,0.0486 nM
5,B5,0.941 nM
6,B6,0.558 nM
7,B7,0.394 nM
8,B8,0.029 nM
9,B9,0.322 nM
10,B10,0.194 nM

# Molecular target: T1, human TIGIT on Jurkat cells (TIGIT/NFAT …)
# Assay: cell-based or functional assay
row,Binder,max. signal (% of 22G2)
1,B1,106 % of 22G2
2,B2,113 % of 22G2
3,B3,127 % of 22G2
4,B4,125 % of 22G2
5,B5,96 % of 22G2
6,B6,102 % of 22G2
7,B7,101 % of 22G2
8,B8,111 % of 22G2
9,B9,100 % of 22G2
10,B10,96 % of 22G2

# Molecular target: T4, His-tagged cynomolgus monkey TIGIT …
# Assay: SPR (Carterra LSA), scFv-Fc captured, His-TIGIT analyte; repeat
# Description: (§2) Binding affinities of anti-TIGIT antibodies to human, cyno, and murine TIGIT were measured by Surface Plasmon Resonance (SPR) on a Carterra LSA instrument. Goat anti-human Fc antibody was amine coupled to a HC30M chip. ScFv-Fc supernatants were diluted 30-fold with HBSTE and were captured by the anti-human Fc coupled HC30M chip. A 1:2 dilution series of his-tagged human TIGIT, starting at 400 nM, was injected onto the chip for binding. A dilution series was also carried out for cyno TIGIT and murine TIGIT. Data were analyzed using the Carterra™ Kinetics software.
row,Binder,Kd
1,B1,1.9 nM
2,B2,2.8 nM
3,B3,2 nM
4,B4,4.8 nM
5,B5,6.3 nM
6,B6,4.4 nM
7,B7,0.582 nM
8,B8,3.2 nM
9,B9,16 nM
10,B10,114 nM

# Molecular target: T2, his-tagged murine TIGIT (Acro …)
# Assay: as above
# Description: as §2
row,Binder,Kd
1,B1,1.8 nM
2,B2,18 nM
3,B3,2.1 nM
4,B4,67 nM
5,B5,10 nM
6,B6,0.744 nM
7,B7,4.8 nM
8,B8,22 nM
9,B9,91 nM
10,B10,0.74 nM
